Assay results: the DeepSol protein solubility set

Assay: soluble on expression in E. coli; label from the status in PepcDB or PDB records

Sequence	soluble on expression in E. coli
GELMPPQLQNGLNLSAKVVQGSLDSLPQAVREFLENNAELCQPDHIHICDGSEEENGRLLGQMEEEGILRRLKKYDNCWLALTDPRDVARIESKTVIVTQEQRDTVPIPKTGLSQLGRWMSEEDFEKAFNARFPGCMKGRTMYVIPFSMGPLGSPLSKIGIELTDSPYVVASMRIMTRMGTPVLEALGDGEFVKCLHSVGCPLPLQKPLVNNWPCNPELTLIAHLPDRREIISFGSGYGGNSLLGKKCFALRMASRLAKEEGWLAEHMLVLGITNPEGEKKYLAAAFPSACGKTNLAMMNPSLPGWKVECVGDDIAWMKFDAQGHLRAINPENGFFGVAPGTSVKTNPNAIKTIQKNTIFTNVAETSDGGVYWEGIDEPLASGVTITSWKNKEWSSEDGEPCAHPNSRFCTPASQCPIIDAAWESPEGVPIEGIIFGGRRPAGVPLVYEALSWQHGVFVGAAMRSEATAAAEHKGKIIMHDPFAMRPFFGYNFGKYLAHWLSMAQHPAAKLPKIFHVNWFRKDKEGKFLWPGFGENSRVLEWMFNRIDGKASTKLTPIGYIPKEDALNLKGLGHINMMELFSISKEFWDKEVEDIEKYLVDQVNADLPCEIEREILALKQRISQM	soluble
MGSDKIHHHHHHMNKDIPVLIFSDKLNINGDYPIIKIINEQSLPYILKHEIGGLKDWFKSRVIPTNRNHLEKLIESLQFEKKPTALDYLKLNNGFSLNDSYWIKPLDISSMYPKDLCWDKYNLYDNKFEEALGLVTFFGNNTSLGGTVNTPKVSSPELTTQGVMNKAWRRTDNKLLLYKRGNIGAANLDKEHFSESIASEIGKILGLNCIPYWTDKWHNQNCSVCEIFTNKDKGYLPFRYFLEAIEPNRKKWGFANVIEWIPKEFKQDFLDMIVFDYIIENRDRHLGNFGFIIDNNTQELLSFAPLFDQGYSLMANALEEDFNKDLKEYSESHPSFVLENKDLAKYVIERNKQRYKGFTKTLRLKIDDINWFNCPNWYKEGIKKLIFTRCEVINSI	not soluble
IADVVPLDQNNRILAYQGLMRIRARHCRLGIIALAEVANRNVEQFTSSDLGFCIGPRLNAAGRLDNMSIGVELLLANEMSKARELALDLDQLNQTRKEIEAGMKLEAIKICQNLTALFKELPYGITLYQPDWHQGVLGIV	not soluble
MHHHHHHAMNHETFLKRAVTLACEGVNAGIGGPFGAVIVKDGAIIAEGQNNVTTSNDPTAHAEVTAIRKACKVLGAYQLDDCILYTSCEPCPMCLGAIYWARPKAVFYAAEHTDAAEAGFDDSFIYKEIDKPAEERTIPFYQVTLTEHLSPFQAWRNFANKKEY	soluble
MAKVLVLNASYEPLNITHWQRAVVLLLKDKAEALENNGKLIYANFPLPSVIRLRQYIKVPYKEIPLTRRNVLERDRHTCQYCNYKGEQLTLDHVIPRSRGGGDSWENLVTACVRCNIKKGNRTPREAQMSLNYTPRRPYSSLLFEIIKHTRNDRNHEWRKYVIGILEHHHHHH	not soluble
MFLTRSEYDRGVNTFSPEGRLFQVEYAIEAVKLGSTSIGIKTSEGVLLAAEKRSTSKLMVNDAIEKISKVDQHIGVTFAGLIADSRTLVERAQIEAQNFWFTYNRKIRVEDVTQSVANLALQFGDDDVKASMSRPFGVAMLFAGVDQEGAKLFHLDPSGTFIDCKAKSIGAASDGAEQNLKEQYHDALTIKEGLKMALAILKQVMEEKLNSANVEVVVIKPTVDAKGRPIGEFTRVSNEELDQVITSL	not soluble
QMTLTELRAFLDQMNNLPCAMHQIGDVKGVLEQVEAYQAEAREALASLPSSPGLLQSLLERGRQLGVEVPEAQQLQRQVEQARWLDEVKRTLAPSARRGTLAVMRGLLVAGASVAPSPAVDKAQAELQELLTIAERWEEKAHLCLEARQKHPPATLEAIIREAENIPVHLPNIQALKEALAKARAWIADVDEIQNGDHYPCLDDLEGLVAVGRDLPVGLEELRQLELQVLTAHSWREKASKTFLKKNS	not soluble
MMSACSDFLDREPLTTPNSETFLSNASAVNNYINGLYIALPSFGTYDMGVRGEEKNSDNIVAEVYDKRLNGELQENGGGTTEWQKGYQNLRNVNYFFEYYKVPETEETKDVLSMKGEAYFFRAYWHFYLLTRFGSIPVMDRFWDGNATVGGLQIPPRDRSAVAQFILDDLNTAKGLLHSRSQYKGLRVCKEAAIIMAMRVALYEGTWEKYHKGTDFAAAEDKSADLLGQVLTLGDELFGMGLALNTKATDKNAVNIEDAYAHIFNSKDLSDMTEVVFWKKYSIADGVIHNLSSNLGAGYVDNSGPAGLSQSLVDNYLNADGTPINPADGIFKDFNLTFKGRDGRLLATVMHSNCKFKSTSPESKSKAMLVEEYSEENKQIVRPPYLTEGGPARNATGYHIRMSIDTTYVSGQGETSLPVIRYAEALLAYAEAAEELGKCTPAVLEKTLKPLRERAGVTYKDPSEIDPNFTDFGYTISANLQEIRRERRAELALQGFRLDDLMRWRAHKLIQGKRGTGAYFGTDGVLYKAFDPKNAADLKTILTTDGWLDPQKELLPRGYQFDANRDYLLPVPPSEISLNHELKQNPGWQRK	not soluble
MAAAVRSVKGLVAVITGGASGLGLSTAKRLVGQGATAVLLDVPNSEGETEAKKLGGNCIFAPANVTSEKEVQAALTLAKEKFGRIDVAVNCAGIAVAIKTYHEKKNQVHTLEDFQRVINVNLIGTFNVIRLVAGVMGQNEPDQGGQRGVIINTASVAAFEGQVGQAAYSASKGGIVGMTLPIARDLAPIGIRVVTIAPGLFATPLLTTLPDTVRNFLASQVPFPSRLGDPAEYAHLVQMVIENPFLNGEVIRLDGAIRMQP	soluble
MGSDKIHHHHHHMKILHYIPSIDRTSGGVGTYMQLLTAELGKLVELHVVTHKETNPLELKNCHVHFIENNNPFLPKEKKNFIFLLNEIKPDVFHANCCWLPMSAYTAMWARNAGYHVVYTPHGMLEPWIMKRHYWTKKFPASLLFQKRGIQIANVIHATAESEKHNLTQLGWNNNIEVIPNCVEIDKITMKESWIRNKNILFLSRVHVKKGINFLIEATANLKTELQGYTINIAGEGEESYINELKQLASKLGVENLIHFIGGVYGDKKWELFKKADLFVLPTHSENFGIVVAEALACGTPVITTQGTPWQELESYHCGWWTEIGTEATTKALKEFLQCTETQLEQMGKNGRKLIEEKYSSQKVAQDMVELYKKVCL	not soluble
MAHHHHHHMRRSSMKFGLRQILSEELGKAAIFLRFKANEYIASTARACQTLTGAETNPEQANKRRKHRQVYEEILRQRQQVAQEAARRAMEGKSLRERLMASASAALKGLKEATSTNAGALALLQHCTAAHAAEVAVEQGIDVKSVTMQVEERKTGSQVGSETVVVGYIDAPNTSEEEMMAFAEQLSKKCPMANAMRGKIEWRRANGEVQHNDEQTTGNDNSVGSTSDKAGDAGSIPHGMPGTRYYSHESMRRGAGGVGDGDELHLPGVTKGSGKGPDK	soluble
MGHHHHHHSHMLRILKKDCALTGGEVTLANQTKIFYVIKAPSLCSLVGSPSSDSVTSQELFKTFPCETPLSMPLVSTSNPLLSIVRLMVSPKPYDLTGVLCFGEDHETHYILRRVAKILTMTQEELDTICDIELHFSSNETLSSNRVPSRLTESIFPGLVPTVHFPQNMILSRGFFTGGNGPIIKHVAQTHHLTSDFVARVFYALKTPQAHAPGAAQLYRGLQIMNHAHNGLDFFPSDSDINDMQQMFLKHVLLSRKGTDSCAQMFFQAYLPVAPEVLGPEVIERVELALAKIELFANNTVFCMSTISTIVRPRIQVTTSANIKYIRMANKYFTMFPPINKDTAVIFGAAVLDQICKETPIREIVLVLRKYAHVVRRPHTPTIKLYTVLTL	not soluble
MSLNAQNAGINFLHGTTWAEAVAKAKAENKLIFIDFYTQWCGPCMNMAQTVFSLPTVGYYYNQTFINLKIDAEEGEGITLAKKYGVRSYPTYAFVDPATEEIVHRSSSRQTPEQFIQTGKDANIPTKRSFYLQEQYTKGNRERAFLIDYINYHYSVYARNNVQAAFDELIKGGAKLTDPDVWEVYVNTINGMNPYLKQVSDNYADFCQRFGKKAVDAKLAKETSYGELAEIEALCNYEGKDFNLKMIRINNDIREQKYEAAATQIDAMIADTTVNQQELISRLKFIARLGYKAEELPEFWFNKCVGYLQYIAYNQTDRDDAFIHQEYAAALEMVLRKLNGKAPIPACLSTEPAYGKKVYNMRPDALKMKPKREGHHHHHH	soluble
